For experiment [1], the target named is T1, 4-1BB antigen (human, UniProt Q07011 24-186, limits assumed).
T1 construct: also called human 4-1BB; h4-1BB
The experiment in a line: BIAcore SPR as in Example 5; antibody captured, 4-1BB antigen in flow. As to the method: (§1) The binding affinity of the mouse monoclonal antibody 4B4-1-1 and humanized antibody were determined and compared using the BIAcore™ assay (Pharmacia). Rabbit anti-mouse IgG (Sigma) and goat anti-human IgG (Fc-specific) were each diluted in 10 mM acetic acid buffer, and coupled to a Dextran CM-5 sensor chip (Pharmacia). 1 M ethanolamine was added to stop the reaction. Mouse monoclonal antibody 4B4-1-1 and humanized antibody Hz4B4-1 were each diluted to a concentration of 50 μg/ml in HEPES buffer (HBS). The coupled antibodies were bound at 100 resonance units (R.U.), and 25 μg/ml of 4-1BB antigen was applied at a flow rate of 10 μl/min. and bound for 5 minutes. HBS buffer (Pharmacia) was applied for 5 minutes at the same flow rate so that dissociation would occur. The association rate and dissociation rates and corresponding rate constants were determined by using BIA evaluation software. The results are shown in Table 2 as $kon$ and $koff$ values; K_d is also shown.
(§2) The antigen binding affinity of the purified Hz4B4-2 humanized antibody was measured as in Example 5 using the BIAcore™ assay (Pharmacia).
A general note: SPR reads the build-up and loss of mass on a sensor chip optically.

The target in experiment [2] is T1, 4-1BB antigen. Briefly: BIAcore SPR; antibody captured by anti-mouse IgG on a CM-5 chip, 4-1BB antigen 25 µg/ml in flow. As to the method:
as §1

Experiment [3] addresses T1, 4-1BB antigen. The experiment in a line: BIAcore SPR; ratio of Kd against mouse monoclonal antibody 4B4-1-1. As for the experimental part: as §1, §2
For experiment [4], the target named is T1, 4-1BB antigen. Briefly: BIAcore SPR; antibody captured by anti-human IgG (Fc-specific) on a CM-5 chip, 4-1BB antigen 25 µg/ml in flow. As to the method: as §1
The target of experiment [5] is T1, 4-1BB antigen. Briefly: summary of the BIAcore results; ratio against Hz4B4-1.
The target in experiment [6] is T1, 4-1BB antigen. Briefly: summary of the BIAcore results; ratio against mouse monoclonal antibody 4B4-1-1.

Here are results for three molecules from US6458934 (LG CHEMICAL, dated 2002).

Residue numbers refer to the chain shown, from its start.

B1: mouse monoclonal antibody 4B4-1-1 (antibody, V domains shown)
VH: QVQLQQPGAELVKPGASVKLSCKASGYTFSSYWMHWVKQRPGQVLEWIGEINPGNGHTNYNEKFKSKATLTVDKSSSTAYMQLSSLTSEDSAVYYCARSFTTARAFAYWGQGTLVTVSA
VL: DIVMTQSQATQSVTPGDRVSLSCRASQTISDYLHWYQQKSHESPRLLIKYASQSISGIPSRFSGSGSGSDFTLSINSVEPEDVGVYYCQDGHSFPPTFGGGTKLEIK
notes: Whole mouse monoclonal antibody from a hybridoma; also called 4B4 MAb; 4B4 monoclonal antibody
A word on the Kd: it is the concentration at which binding is half-saturated. A low value points to higher affinity. Usually kon stands for the rate constant with which the complex forms. The low end stands for slower complex formation, the high end for faster complex formation. One may read the koff as the first-order rate constant of dissociation. The low end stands for a long-lived complex, the high end for a short-lived complex. Take B1: in experiment [1], the Kd turned out to be 0.133 nM and the kon is 11600 M⁻¹ s⁻¹. In addition, in experiment [2], the Kd worked out at 0.133 nM, the koff is 1.54e-06 s⁻¹ and the on-rate (kon) came to 11600 M⁻¹ s⁻¹.

B2: humanized antibody Hz4B4-1 (antibody, V domains shown)
VH: B1 VH with Q5V, P7S, L11V, R40A, S76A, Q82E, T87R, S91T, A119S
VL: B1 VL with Q8P, T14S, D17E, S20T, S40P, H41G, E42Q, S74T, N76S, V83F
notes: also called Hz4B4k-1 (light chain variable region); Hz4B4h-1 (heavy chain variable region)
As to B2, in experiment [3], the “fold greater antigen binding affinity (Kd) than mouse antibody 4B4-1-1” value is ~1.5 fold and the “fold greater antigen binding affinity (Kd) than mouse monoclonal antibody 4B4-1-1” value is 1.5 fold. For the same molecule, in experiment [1], the Kd amounted to 0.0872 nM, the koff was determined as 4.36e-06 s⁻¹ and the on-rate (kon) amounted to 50000 M⁻¹ s⁻¹. Further, in experiment [4], the Kd was determined as 0.0872 nM, the koff is 4.36e-06 s⁻¹ and the on-rate constant (kon) was found to be 50000 M⁻¹ s⁻¹.

B3: humanized antibody Hz4B4-2 (antibody, V domains shown)
VH: QVQLVQSGAEVKKPGASVKVSCKASGYTFSSYWMHWVRQAPGQRLEWMGEINPGNGHTNYSQKFQGRVTITVDKSASTAYMELSSLRSEDTAVYYCARSFTTARAFAYWGQGTLVTVSS
VL: DIVMTQSPPTLSLSPGERVTLSCRASQSISDYLHWYQQKPGQSPRLLIKYASQSISGIPARFSGSGSGTDFTLTISSLEPEDFAVYYCQDGHSFPPTFGGGTKVEIK
notes: Whole antibody made in CHO-K1 cells (SB500 clone); The variable regions were put into the Hz4B4-1 expression vectors, so it has the same human kappa and human heavy chain constant regions; also called Hz4B4k-2 (light chain); Hz4B4h-2 (heavy chain)
Turning to B3, in experiment [3], the “fold greater antigen binding affinity than mouse monoclonal antibody 4B4-1-1” value was 7.3 fold. For the same molecule, the “fold greater antigen binding affinity than Hz4B4-1” value in experiment [5] turned out to be 5 fold. Further, the “fold higher antigen binding affinity than the original mouse monoclonal antibody” value in experiment [6] was 7 fold.
